For this assay, the target named is membrane-embedded MraY from Aquifex aeolicus used for structure-guided disulfide cross-bridge experiments (Aquifex aeolicus) (UniProt O66465). In words: cross-linking.

“membrane-embedded MraY from Aquifex aeolicus used for structure-guided disulfide cross-bridge experiments (from UniProt O66465 1-359) (enzyme)” returned a stoichiometry N of 2.

The record behind these values is paper PMC3906829.
